Laboratory results: patent US20230226096A1 (Orna Therapeutics, Inc., priority 2020, published 2023)

B1: Kobuvirus SZAL6: "Kobuvirus SZAL6 IRES", one of the selected IRES sequences, SEQ ID NOs: 348-389 (nucleic acid, listed as Kobuvirus sp.)
DNA: TTTCACACCCTCTTTTCCGGTGGTCCGGACCCAGACCACCGTTACTCCATTCAGCTACTTCGGTACCTGTTCGGAGGAATTAAACGGGCACCCTACCCAAGGGTTACATGGGACCATATTCCTCCTCCCCTGTAACTTTAAGTTTTGTGCCCGTATTCTTGACTCCAGGCGGATGTTGTGTCGCCCGTCCTGTGAACAAACAGCTAGACACTTTCCTCCCCTCCCTCTGGGCTGCTCCGGCAGTCCACTCCCTCCCCCCAGCGTAACATGCCCCGCTGGAGTGATGCACCTGGAAGTCGTGGACGTGGGTTAGTAACTTCGGTGAAAACCCACTATAATGACAACTGGTTGACCCCCACACTCAAAGGACTCGAGTCTTTCTCCCTTAAGGCTAGCCCGGCCACATGAATTTGCAGCTGGCAACTAGTGAGTCCACCATGTCCCGCAACCTCGGCTGCGGAGTGCTGTTCCCCAAGCGTATGCCTTCCTTCTGTAAGAGTGCGCCTGGCAAGCACATCTGAGAAGTCGTTCCGCTGCGTCGTGCCAACCTGGCGACAGGTGACCCAGTGTGCGTAGACTTCTTCCGGATTCGTCCGGCTCTTCTCTAGGAAACATGCGTGTAAGGTTCATGTGCCAAAGCCCTGCGCGCGGTGTTCTTCTACTGCCCTAGGAATGTGCCGCAGGTACCCCTACTTCGGTAGGGATCTGAGCGGTAGCTAATTGTCTACGGGTAGTTTCATTTCCATCTTCTCTTCAGGTCGACATC
B2: Pronghorn antelope pestivirus (nucleic acid, listed as Pestivirus sp.)
DNA: GTATACGCAGTTAGTTCATCCTGTGTATACAGATTGGAGACTCTAAAAACAACGATTCGGAATAGGGGCCCGCGGCGAAGACCGAAGACAGGCTAACCATGCCGTTAGTAGGGCTAGCACCAAAACGCGGGAACTAGACACTTAGGAGAGTGGTCTGGCTACTCTAAGAGGTGAGTACACCTTAACCGTCAAGGGTTCTACTCCTCAGTTGAGGACTAGAGATGCCCTGTGGACGGGGGCATGCCCAAGAGTTAGCTTAGCCGGGGCGGGGGTTGTTCCGGTGAAAGTAGCAATATTGACCACACTGCCTGATAGGGCGGAGCAGGCCCCCTAGGTAGTCTAGTATAAAATGTCTGCTGTACATGGCAC
B3: Porcine pestivirus isolate Bungowannah (nucleic acid, listed as Pestivirus sp.)
DNA: TACGCGGGGTATAACGACAGTAGTTCAAGTGTCGTTATGCATCATTGGCCATAACAAATTATCTAATTTGGAATAGGGACCTGCGACCTGTACGAAGGCCGAGCGTCGGTAGCCATTCCGACTAGTAGGACTAGTACAAATAGGTCAACTGGTTGAGCAGGTGAGTGTGCTGCAGCGGCTAAGCGGTGAGTACACCGTATTCGTCAACAGGTGCTACTGGAAAGGATCACCCACTAGCGATGCCTGTGTGGACGAGGACATGTCCAAGCCAATGTTATCAGTAGCGGGGGTCGTTACTGAGAAAGCTGCCCAGAATGGGTAGTTGCACATACAGTCTGATAGGATGCCGGCGGATGCCCTGTATTTTGACCAGTATAAATATTATCCGTTGTAAAGCAT
B4: Porcine pestivirus 1 (nucleic acid, listed as Pestivirus sp.)
DNA: GCAGATATCGGTGGTGGACCTGGGGGTTGGGCTCACCGTGCCCCTTCATGGGGTAGACCTCACTGCTTGATAGAGTGCCGGCGGATGCCTCAGGTAAGAGTATAAAATCCGTTGTTCACTAAC
modifications: chemistry not fully specified; the letters are possibly those of the target site
B5: Pestivirus giraffe-1 (nucleic acid, listed as Pestivirus sp.)
DNA: GTATACGAGTTTAGCTCAATCCTCGTATACAATATTGGGCGTCACCAAATATAGATTTGGCATAGGCAACACCCCGATGCGAAGGCCGAAAAGGGCTAACCATGCCCTTAGTAGGACTAGCAAAAAATCGGGGACTAGCCCAGGTGGTGAGCTTCCTGGATGACCGAAGCCCTGAGTACAGGGCAGTCGTCAACAGTTCAACACGCAGAATAGGTTTGCGTCTTGATATGCTGTGTGGACGAGGGCATGCCCACGGTACATCTTAACCTATCCGGGGGTCGGATAGGCGAAAGTCCAGTATTGGACTGGGAGTACAGCCTGATAGGGTGTTGCAGAGACCCATCTGATAGGCTAGTATAAAAAACTCTGCTGTACATGGCAC
B6: Sakobuvirus A FFUP1 (1x mut) (nucleic acid)
DNA: TCACGCGCTTTTCCGGTGGTCACCCACCGTTAGGGAGCGCCAGCGTTCGCGCTTCCGCTACCAGGTGACACACTCCTTTCCCCTCCCCCATTCCCGTTCCCATCCTCTGGACTGGTTTCTCCTCACGATTGACCAGCAGCTGGGAGCTGTTACCAGACGTTGGACAGTAAGTCCCGGATGCACTATAGGGCTGGTGGCTAGTGCTTGGTAAGCACTCAACGCCATACCTAATGTGTACCTCGGCTTGCCCTCCTGGTCGTGGTGACCGGCTGTTTCTCTTCCCTTGGCTCCAGACGGGCTGGTGTCCTACCACCACCGTTGCATGCAGACCTCCCCCTGCGCACTCGAACGCCCTGTCCCAGCAGGGTTAGTATGTGCTGTGCAGATCTGCATGTGACACCCCATCCACTGGTAGAGCAGGAAGTTGCCCTAGCTAACGCGGCAAGTATTACTTTCCGCTACACGTCCTTGAGATTCCTCGGACCTCTGGAACTAGGGTGACTGTGGGCTTGGGAAAACCCACCTTGGTCCTGTACTGCCTGATAGGGTCGCGGCTGGCCGACCAGTGGATGTAGCCAGTTGTTTTGGGAT
B7: Human pegivirus isolate JD2B1I (nucleic acid, listed as Pegivirus sp.)
DNA: TCAGGGTTGGTAGGTCGTAAATCCCGGTCACCTTGGTAGCCACTATAGGTGGGTCTTAAGAGAAGGTTAAGATTCCTCTTGTGCCTGCGGCGAGACCGCGCACGGTCCACAGGTGTTGGCCCTACCGGTGGGAATAAGGGCCCGACGTCAGGCTCGTCGTTAAACCGAGCCCGTCACCCACCTGGGCAAACGACGCCCACGTACGGTCCACGTCGCCCTTCA
B8: Human pegivirus isolate JD2B8C (nucleic acid, listed as Pegivirus sp.)
DNA: TGGTCACCTTGGTAGCCACTATAGGTGGGTCTTAAGAGAAGGTTAAGATTCCTCTTGTGCCTGCGGCGAGACCGCGCACGGTCCACAGGTGTTGGCCCTACCGGTGTGAATAAGGGCCCGACGTCAGGCTCGTCGTTAAACCGAGCCCATTTCCCGCCTGGGCAAACGACGCCCACGTACGGTCCACGTCGCCCTTTTAATGTCTCTCTTGACCAATAGGTTCATCCGGCGAGTTGACAAGGACCAGTGGGGGCCGGGGGTCACAGGGATGGACCCTGGGCCCTGCCCTTCCCGGCGGGGTGGGGAAAGCATGGGGCCACCCAGCTCCGCGGCGGCCTGCAGCCGGGGTAGCCCAAGAACCTTCGGGTGAGGGCGGGTGGCATTTTTCTTCCTATACCGATC
B9: Simian pegivirus (nucleic acid, listed as Pegivirus sp.)
DNA: GGGGAATCTCACCCCCCGTCCGGTTCCGGAAGAATCGGAAACCGACACCCTGACCAATCATTCTTGATCATAGAGTGGATGTTAGTGAAAGCCAGACGAAAGCCGGCGGATGGGTGGTGACAGGGTTGGTAGGTCGTAAATCCCGGCCACCCTGGTACCCGGTATAAGTTGGGCGGAAGCTGACTGAAGCTCCGTGCTCTTTTCTGTGCGTTCTTGGTGCACGGTCCACAGGTGACGCCTATACCGGTGTGAATAATAGGCCGACTCGAGCGGAGTCGTTAAACTGAGAACCTCCATACGGATGGCAACTTGGCTTGCGTACGGGGACGCCGCTAAAGTCACAGTGGGTTAAGTCCGGCGGGTTGACAACCCCAGCAAGGCGAGGGGGTCCTATTGTTGGACTCTGCCAGTTCCCGGTGGAGGTAGGCATGGGGTGGCCCAGCTCCGCGGCGCGCTACAGCCGGGGTAGCCCAAAATCCGAAAGGTGAGGGCGGGCCACATGTCCGAAATTTAGTCAAGC

System: HEK293 cells
Format: cell-based, human
Settings: luminescence from secreted Gluc in supernatant 24 hours after transfection of HEK293 cells; circular RNA encoding Gluc with the named IRES (UTR truncated to 675 nt)

Molecule | Expression
B1 | 98850000
B2 | 1.35E+06
B3 | 1.10E+07
B4 | 9.46E+04
B5 | 4.72E+05
B6 | 8.82E+06
B7 | 6.85E+05
B8 | 5.36E+05
B9 | 8.56E+04
